Reference: paper PMC8666006 (Cancer cell, 2020)

B1: Exo1-FF-AA (enzyme, human, UniProt Q9UQ84 1-846, looked up)
chain: MGIQGLLQFIKEASEPIHVRKYKGQVVAVDTYCWLHKGAIACAEKLAKGEPTDRYVGFCMKFVNMLLSHGIKPILVFDGCTLPSKKEVERSRRERRQANLLKGKQLLREGKVSEARECFTRSINITHAMAHKVIKAARSQGVDCLVAPYEADAQLAYLNKAGIVQAIITEDSDLLAFGCKKVILKMDQFGNGLEIDQARLGMCRQLGDVFTEEKFRYMCILSGCDYLSSLRGIGLAKACKVLRLANNPDIVKVIKKIGHYLKMNITVPEDYINGFIRANNTFLYQLVFDPIKRKLIPLNAYEDDVDPETLSYAGQYVDDSIALQIALGNKDINTFEQIDDYNPDTAMPAHSRSHSWDDKTCQKSANVSSIWHRNYSPRPESGTVSDAPQLKENPSTVGVERVISTKGLNLPRKSSIVKRPRSAELSEDDLLSQYSLSFTKKTKKNSSEGNKSLSFSEVFVPDLVNGPTNKKSVSTPPRTRNKFATFLQRKNEESGAVVVPGTRSRAACSSDSTDCVSNKVSIQPLDETAVTDKENNLHESEYGDQEGKRLVDTDVARNSSDDIPNNHIPGDHIPDKATVFTDEESYSFESSKFTRTISPPTLGTLRSCFSWSGGLGDFSRTPSPSPSTALQQFRRKSDSPTSLPENNMSDVSQLKSEESSDDESHPLREEACSSQSQESGEFSLQSSNASKLSQCSSKDSDSEESDCNIKLLDSQSDQTSKLRLSHFSKKDTPLRNKVPGLYKSSSADSLSTTKIKPLGPARASGLSKKPASIQKRKHHNAENKPGLQIKLNELWKNFGFKKDSEKLPPCKKPLSPVRDNIQLTPEAEEDIFNKPECGRVQRAIFQ
B2: Exo1-ΔC (domain or fragment, human, UniProt Q9UQ84 1-602, looked up)
chain: MGIQGLLQFIKEASEPIHVRKYKGQVVAVDTYCWLHKGAIACAEKLAKGEPTDRYVGFCMKFVNMLLSHGIKPILVFDGCTLPSKKEVERSRRERRQANLLKGKQLLREGKVSEARECFTRSINITHAMAHKVIKAARSQGVDCLVAPYEADAQLAYLNKAGIVQAIITEDSDLLAFGCKKVILKMDQFGNGLEIDQARLGMCRQLGDVFTEEKFRYMCILSGCDYLSSLRGIGLAKACKVLRLANNPDIVKVIKKIGHYLKMNITVPEDYINGFIRANNTFLYQLVFDPIKRKLIPLNAYEDDVDPETLSYAGQYVDDSIALQIALGNKDINTFEQIDDYNPDTAMPAHSRSHSWDDKTCQKSANVSSIWHRNYSPRPESGTVSDAPQLKENPSTVGVERVISTKGLNLPRKSSIVKRPRSAELSEDDLLSQYSLSFTKKTKKNSSEGNKSLSFSEVFVPDLVNGPTNKKSVSTPPRTRNKFATFLQRKNEESGAVVVPGTRSRFFCSSDSTDCVSNKVSIQPLDETAVTDKENNLHESEYGDQEGKRLVDTDVARNSSDDIPNNHIPGDHIPDKATVFTDEESYSFESSKFTRTISPPTL

Target: MutLα (MLH1-PMS2) (human, UniProt P40692 1-756; P54278 1-862)
Sequence (P40692 whole entry, chain 1 of 2): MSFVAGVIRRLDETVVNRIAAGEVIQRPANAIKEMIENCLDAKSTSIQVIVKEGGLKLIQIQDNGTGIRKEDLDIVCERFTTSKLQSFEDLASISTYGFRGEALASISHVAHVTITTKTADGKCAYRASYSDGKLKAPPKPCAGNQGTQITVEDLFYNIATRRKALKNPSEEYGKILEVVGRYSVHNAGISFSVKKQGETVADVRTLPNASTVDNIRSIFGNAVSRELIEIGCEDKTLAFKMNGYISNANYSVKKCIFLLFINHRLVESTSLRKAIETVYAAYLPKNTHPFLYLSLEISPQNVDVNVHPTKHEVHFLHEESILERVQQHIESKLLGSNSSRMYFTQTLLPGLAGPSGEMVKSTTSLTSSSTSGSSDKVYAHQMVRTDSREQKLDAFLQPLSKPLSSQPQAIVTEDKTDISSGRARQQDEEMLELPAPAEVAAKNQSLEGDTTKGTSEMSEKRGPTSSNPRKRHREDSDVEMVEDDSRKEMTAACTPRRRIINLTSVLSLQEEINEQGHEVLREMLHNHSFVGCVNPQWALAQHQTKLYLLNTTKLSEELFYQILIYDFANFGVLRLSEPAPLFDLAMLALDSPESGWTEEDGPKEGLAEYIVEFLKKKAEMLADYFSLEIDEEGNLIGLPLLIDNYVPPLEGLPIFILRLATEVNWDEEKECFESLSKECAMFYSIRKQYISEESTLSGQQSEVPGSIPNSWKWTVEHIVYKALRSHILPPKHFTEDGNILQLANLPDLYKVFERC
Sequence (P54278 whole entry, chain 2 of 2): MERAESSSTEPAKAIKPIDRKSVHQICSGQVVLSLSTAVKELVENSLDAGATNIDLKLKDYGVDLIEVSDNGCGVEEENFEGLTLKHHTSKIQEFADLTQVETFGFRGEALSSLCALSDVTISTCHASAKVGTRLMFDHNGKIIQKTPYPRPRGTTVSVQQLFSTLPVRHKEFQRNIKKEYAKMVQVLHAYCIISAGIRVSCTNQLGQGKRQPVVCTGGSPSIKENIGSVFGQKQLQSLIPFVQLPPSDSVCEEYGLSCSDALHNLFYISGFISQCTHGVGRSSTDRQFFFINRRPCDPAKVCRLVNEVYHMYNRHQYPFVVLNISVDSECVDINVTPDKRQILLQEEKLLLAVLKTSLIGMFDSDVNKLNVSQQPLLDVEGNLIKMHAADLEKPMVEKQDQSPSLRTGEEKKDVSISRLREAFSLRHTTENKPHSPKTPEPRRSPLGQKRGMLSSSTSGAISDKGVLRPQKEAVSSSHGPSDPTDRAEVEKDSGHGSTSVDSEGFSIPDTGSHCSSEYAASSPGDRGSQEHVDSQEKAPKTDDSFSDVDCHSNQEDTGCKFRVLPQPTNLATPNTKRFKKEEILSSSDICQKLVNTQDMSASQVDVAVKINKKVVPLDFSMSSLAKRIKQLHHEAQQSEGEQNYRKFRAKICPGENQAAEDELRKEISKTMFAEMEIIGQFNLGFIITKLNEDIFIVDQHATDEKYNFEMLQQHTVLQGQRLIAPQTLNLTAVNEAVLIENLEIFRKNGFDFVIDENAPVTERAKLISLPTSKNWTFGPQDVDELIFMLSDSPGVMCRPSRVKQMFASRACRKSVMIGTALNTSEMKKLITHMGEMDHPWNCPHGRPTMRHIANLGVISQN
Test: co-IP

Row | Binder | binding result
1 | B1 | binds
2 | B2 | binds
